Among the data in the FLAb antibody collection are Tm values, retold here.

The first data set is described as follows: melting temperature. As to conditions: DSF (SYPRO).
Regarding “QVKLEESGGGLVQAGGSLRLSCAASERTFSRYPVAWFRQAPGAEREFVAVISSTGTSTYYADSVKGRFTISRDNAKVTVYLQMNNLKREDTAVYFCAVNSQRRRLQDPNEYDYWGQGTQVTVSSGSEQKLISEEDLNHHHHHH”, the melting temperature (Tm) stood at 79.1 °C.
For “QVKLEESGGGLVQAGGSLRLSCAASERTFSRYPVAWFRQAPGAEREFVAVISSTGTSTYYADSVKGRFTISRDNAKVTVYLQMNNLKREDTAVYFCAVNSQRTRLLDPNEYDYWGQGTQVTVSSGSEQKLISEEDLNHHHHHH”, the Tm was determined as 80 °C.
Consider “QVKLEESGGGLVQAGGSLRLSCAASERTFSRYPVAWFRQAPGAEREFVAVISSTGTSTYYADSVKGRFTISRDNAKVTVYLQMNNLKREDTAVYFCAVNSQRTRLQDPREYDYWGQGTQVTVSSGSEQKLISEEDLNHHHHHH”, for which the melting temperature (Tm) is 77.6 °C.
For the sequence “QVKLEESGGGLVQAGGSLRLSCAASERTFSRYPVAWFRQAPGAEREFVAVISSTGTSTYYADSVKGRFTISRDNAKVTVYLQMNNLKREDTAVYFCAVNSQRTRLQNPNEYDYWGQGTQVTVSSGSEQKLISEEDLNHHHHHH”, the Tm was 74.9 °C.
On to “QVKLEESGGGLVQAGGSLRLSCAASERTFSRYPVAWFRQAPGAEREFVAVISSTGTSTYYADSVKGRFTISRDNAKVTVYLQMNNLKREDTAVYFCAVNSQRTRLQYPNEYDYWGQGTQVTVSSGSEQKLISEEDLNHHHHHH”, for which the midpoint of thermal melting (Tm) turned out to be 73.4 °C.
As to “QVKLEESGGGLVQAGGSLRLSCAASERTFSRYPVAWFRQAPGAEREFVAVISSTGTSTYYADSVKGRFTISRDNAKVTVYLQMNNLKREDTAVYFCAVNSQRTRLWDPNEYDYWGQGTQVTVSSGSEQKLISEEDLNHHHHHH”, the melting temperature (Tm) turned out to be 79.7 °C.
The same measure, in the same setting: as for “QVKLEESGGGLVQAGGSLRLSCAASERTFSRYPVAWFRQAPGAEREFVAVISSTGTSTYYADSVKGRFTISRDNAKVTVYLQMNNLKREDTAVYFCAVNSQRTRLYDPNEYDYWGQGTQVTVSSGSEQKLISEEDLNHHHHHH”, the figure is 79 °C; as for “QVKLEESGGGLVQAGGSLRLSCAASERTFSRYPVAWFRQAPGAEREFVAVISSTGTSTYYADSVKGRFTISRDNAKVTVYLQMNNLKREDTAVYFCAVNSQRTWLQDPNEYDYWGQGTQVTVSSGSEQKLISEEDLNHHHHHH”, 77.3 °C.
As to “QVKLEESGGGLVQAGGSLRLSCAASERTFSRYPVAWFRQAPGAEREFVAVISSTGTSTYYADSVKGRFTISRDNAKVTVYLQMNNLKREDTAVYFCAVNSQRWRLQDPNEYDYWGQGTQVTVSSGSEQKLISEEDLNHHHHHH”, the Tm worked out at 77.5 °C.
The same measure, in the same setting: the figure for “QVQLQESGGGLVQPGGSLRLSCAASGFTISTTAMSWVRQAPGKGIEWVSTIFASGETTSYADFVQGRFITSRDNTKNTLYLQLNNLKTEDTAMYFCAAADDFGGLNNRYRGQGTQVTVSS” is 60.7 °C; for “QVQLQESGGGSVQAGGSLKLSCAASGYIFSSCAMSWYRQAPGKERELVSSITSYGDAAYTDSAKGRFTISRDNAKNTLYLHLNNLKPEDTAVYFCAACPRNKYWGQGTQVTVSS” it is 68.4 °C.
Take “QVQLQESGGGSVQAGGSLKLSCDASTYTYGGKCMGWFRQAPGKEREFVAFIESDGRTSYADSVKGRFTISQDDAKNTVYLQMNSLKPEDTSMYYCKTAAGAFCGTRSYGFWGQGTQVTVSS”: the melting temperature (Tm) turned out to be 57.2 °C.
Still for that read-out and setting: as for “QVQLQESGGGSVQAGGSLRLPCVASGYIYSPTKMGWFRQAPGKERELVSSITRDGRPYYSDSVKGRFTISQDNAKNTVYLQMNSLKPEDTAMYYCFADVRLSAVGGIKTYWDQGTQVTVSS”, the figure is 58.6 °C.
For “QVQLQESGGGSVQAGGSLRLSCAASGWTYSTATMGWYRQAPGKERELVSSIFSDENTYYKDSVKGRFTISRDAAKNTVYLQMNSLKPEDTAMYYCYIRPTTSLANWRWGQGTQVTVSS”, the Tm is 59.7 °C.
Still for that read-out and setting: as for “QVQLQESGGGSVQAGGSLRLSCAASGYTYTMGWFRQAPGKEREGVTIIYTGYDNIVYADSVKGRFTISRDNAKNTVYLQMNNLKPEDTAMYHCAAATRGLPRSYFDPGWYDSWGQGTQVTVSS”, the figure is 62.5 °C; as for “QVQLQESGGGSVQAGGSLRLSCAVSGYTYSRNCIGWFRQAPGKEREGVAALYTGGGSTYYAASVKGRFTISQDTKNTVYLQMNSLKPEDSAMYYCAANPFGLYTCGDLRGPDFGYWGQGTQVTVSS”, 71 °C.
In the case of “QVQLQESGGGSVQAGGSLRLSCAVSGYTYSSYSIGWFRQAPGKEREGVAAINSGGSTNYAGSVEGRFTISQDNAKNTVSLLMNSLKPEDTATYYCAVGAFFTLRPTLYNYKGQGTQVTVSS”, the Tm amounted to 48.3 °C.
Take “QVQLQESGGGSVQAGGSLRLSCESSGMTFSVYNLGLRQAPGQECELSTITRDGSTDYADSMKGRFTISRDNAKNTMYLQMTSLKPDDTAVYYCAAGVGVVDCTEGQGTQVTVSS”: the Tm worked out at 51.8 °C.

Staying with this data set, now noted: nanoDSF.
In the case of “KVQLVESGGGLVQAGGSLRLACTASGSAFSINTMGWYRRAPGKQRELVASITSSGSTTYADSVKGRFTISRDSAKNTVFLQMNSVKPEDTSVYYCNGEIQRTDYNFWGQGTQVTVSS”, the Tm came to 63.5 °C.
In the case of “QVQLQESGGGSVQAGGSLKLSCAASGYIFSSCAMSWYRQAPGKERELVSSITSYGDAAYTDSAKGRFTISRDNAKNTLYLHLNNLKPEDTAVYFCAACPRNKYWGQGTQVTVSS”, the Tm is 63.6 °C.
Regarding “QVQLQESGGGSVQAGGSLKLSCDASTYTYGGKCMGWFRQAPGKEREFVAFIESDGRTSYADSVKGRFTISQDDAKNTVYLQMNSLKPEDTSMYYCKTAAGAFCGTRSYGFWGQGTQVTVSS”, the midpoint of thermal melting (Tm) worked out at 60.8 °C.
With “QVQLQESGGGSVQAGGSLRLPCVASGYIYSPTKMGWFRQAPGKERELVSSITRDGRPYYSDSVKGRFTISQDNAKNTVYLQMNSLKPEDTAMYYCFADVRLSAVGGIKTYWDQGTQVTVSS”, the Tm was 63.3 °C.
On the same count and under the same terms, as for “QVQLQESGGGSVQAGGSLRLSCAASGWTYSTATMGWYRQAPGKERELVSSIFSDENTYYKDSVKGRFTISRDAAKNTVYLQMNSLKPEDTAMYYCYIRPTTSLANWRWGQGTQVTVSS”, the figure is 63.9 °C.
Same read-out and setting: the figure for “QVQLQESGGGSVQAGGSLRLSCAASGYTYTMGWFRQAPGKEREGVTIIYTGYDNIVYADSVKGRFTISRDNAKNTVYLQMNNLKPEDTAMYHCAAATRGLPRSYFDPGWYDSWGQGTQVTVSS” is 70 °C; for “QVQLQESGGGSVQAGGSLRLSCAVSGYTYSSYSIGWFRQAPGKEREGVAAINSGGSTNYAGSVEGRFTISQDNAKNTVSLLMNSLKPEDTATYYCAVGAFFTLRPTLYNYKGQGTQVTVSS” it is 53.6 °C.
